Where a chain is given by its changes, count along the chain named.
B1: mAb 6D4: anti-methotrexate mouse monoclonal antibody; variable heavy chain SEQ ID NO:11, variable light chain SEQ ID NO:12 (antibody, V domains shown)
VH: QIQLVQSGPELKKPGETVKISCKASGYTFTNYGMNWVKRAPGKGLKWMGWINPYTGEPTYADDFKGRFAFSLETSASTAYLQINNLKNEDMATYFCARNDYYYALDSWGQGTSVTVSS
VL: DVVMTQSPLSLPVSLGDQASISCRSSQSLVKSNGNTYLHWFLQKSGQSPKLLIYKVSNRFSGVPDRFSGSGSGTDFTLKISRVEAEDLGVYFCSQSTHVPWTFGGGTKLEIK
modifications: mouse
B2: mAb 19A6: anti-methotrexate mouse monoclonal antibody; variable heavy chain SEQ ID NO:7, variable light chain SEQ ID NO:8 (antibody, V domains shown)
VH: QIQLVQSGPELKRPGETVKISCKASGYTYTYYGINWLKQAPGKDLKWMGWINPYTGEPAYADDFKGRFAFSLETSATTTYLQINNLKNEDMATYFCARNSYYYALDYWGQGTSVTVSS
VL: B1 VL with S7T, S14N, S28N, S45P
modifications: mouse
B3: mAb 10C7: anti-methotrexate mouse monoclonal antibody; variable heavy chain SEQ ID NO:3, variable light chain SEQ ID NO:4 (antibody, V domains shown)
VH: EVQLVESGGGLVKPGGSLRLSCAASGFTFRTYAMSWVRQTPEKRLEWVATITSGGTYIYYLDSVKGRFTISRDNAKNVLYLQMSSLRSEDTAMYYCVRLYGYDGMDYWGQGTSVTVSA
VL: QAVVTQESALTTSPGETVTLTCRSSTGAVSTSNYVNWVQEKPDHLFTGLIGGTKNRVPGVPARFSGSLIGDKAALTITGAQTEDEAIYFCALWYTNHLVFGGGTKLTVL
modifications: mouse

Experiment: MTX antibody cross-reactivity with 7-OH-MTX (competitive assay)
Format: binding
Conditions: chemical spiked at 100 μM; calculated MTX concentration divided by 100 μM
Procedure: (§1) The 4 selected MTX antibodies, 10C7, 45C11, 6D4, 19A6, were evaluated for cross-reactivity with MTX metabolites and related compounds (7-OH-MTX, DAMPA, Folic Acid and Folinic Acid). The amount of cross-reactivity with each chemical is defined as the percent ratio of the calculated MTX concentration of the chemical divided by 100 μM, which was the spiked concentration of the chemical.
In the case of B1, the “% Cross-Reactivity with 7-OH-MTX” value is reported as 0.91%. For B2, the “% Cross-Reactivity with 7-OH-MTX” value was 0.76%. In the case of B3, the “% Cross-Reactivity with 7-OH-MTX” value is reported as 0.37%.

Experiment: MTX antibody cross-reactivity with DAMPA (competitive assay)
Format: binding
Conditions: chemical spiked at 100 μM; calculated MTX concentration divided by 100 μM
Procedure: as §1
In the case of B1, the “% Cross-Reactivity with DAMPA” value is reported as 0.52%. In the case of B2, the “% Cross-Reactivity with DAMPA” value is reported as 0.029%. For B3, the “% Cross-Reactivity with DAMPA” value was 0.43%.

Experiment: MTX antibody cross-reactivity with Folic Acid (competitive assay)
Format: binding
Conditions: chemical spiked at 100 μM; calculated MTX concentration divided by 100 μM
Procedure: as §1
With B1 the “% Cross-Reactivity with Folic Acid” value was 0.48%. For B2, the “% Cross-Reactivity with Folic Acid” value was 0.073%. In the case of B3, the “% Cross-Reactivity with Folic Acid” value is reported as 0.24%.

Experiment: MTX antibody cross-reactivity with Folinic Acid (competitive assay)
Format: binding
Conditions: chemical spiked at 100 μM; calculated MTX concentration divided by 100 μM
Procedure: as §1
For B1, the “% Cross-Reactivity with Folinic Acid” value was 0.24%. For B2, the “% Cross-Reactivity with Folinic Acid” value was 0.11%. With B3 the “% Cross-Reactivity with Folinic Acid” value was 0.28%.
